In PMC5041490:

Key:
Assay in all cases: pull-down
His-G5(1–739) Y15A = His-G5(1–739) Y15A (UniProt Q8TEQ6)
His-G5(1–739) Y474A = His-G5(1–739) Y474A (UniProt Q8TEQ6)
His-G5(1–739) wild type = His-G5(1–739) wild type (UniProt Q8TEQ6)
His-G5(1–739) W14A = His-G5(1–739) W14A (UniProt Q8TEQ6)
Chain of His-G5(1–739) W14A (Q8TEQ6 1-739 W14A): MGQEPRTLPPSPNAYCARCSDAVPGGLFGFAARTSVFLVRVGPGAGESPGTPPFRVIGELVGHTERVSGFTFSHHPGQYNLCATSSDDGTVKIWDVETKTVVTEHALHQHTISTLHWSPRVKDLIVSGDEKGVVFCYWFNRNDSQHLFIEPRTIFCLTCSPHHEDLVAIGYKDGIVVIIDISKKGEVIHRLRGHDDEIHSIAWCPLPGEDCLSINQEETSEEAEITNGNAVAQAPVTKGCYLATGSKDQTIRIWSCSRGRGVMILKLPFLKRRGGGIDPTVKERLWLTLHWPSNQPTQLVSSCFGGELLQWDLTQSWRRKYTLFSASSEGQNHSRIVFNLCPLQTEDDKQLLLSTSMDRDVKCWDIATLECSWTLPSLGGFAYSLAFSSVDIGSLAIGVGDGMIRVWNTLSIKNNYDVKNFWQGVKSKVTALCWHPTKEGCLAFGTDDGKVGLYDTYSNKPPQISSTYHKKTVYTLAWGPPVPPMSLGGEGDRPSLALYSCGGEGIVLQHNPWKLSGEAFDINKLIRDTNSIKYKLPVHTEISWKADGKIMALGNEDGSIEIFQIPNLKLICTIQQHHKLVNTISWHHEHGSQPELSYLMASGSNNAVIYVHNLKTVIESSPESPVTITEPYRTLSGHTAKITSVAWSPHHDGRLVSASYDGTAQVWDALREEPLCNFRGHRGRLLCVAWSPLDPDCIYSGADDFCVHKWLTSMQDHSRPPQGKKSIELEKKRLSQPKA

Chain of His-G5(1–739) wild type (Q8TEQ6 1-739): as the sequence (Q8TEQ6 1-739 W14A) above, with A14W counted along it
Chain of His-G5(1–739) Y474A (Q8TEQ6 1-739 Y474A): as the sequence (Q8TEQ6 1-739 W14A) above, with A14W, Y474A counted along it
Chain of His-G5(1–739) Y15A (Q8TEQ6 1-739 Y15A): as the sequence (Q8TEQ6 1-739 W14A) above, with A14W, Y15A counted along it

fold P0 signal over the beads-ribosome background (His-G5(1–739) Y15A): 14.4 fold
fold P0 signal over the beads-ribosome background (His-G5(1–739) Y474A): 3 fold
fold P0 signal over the control (beads with 80S, no His protein) (His-G5(1–739) wild type): 38.8 fold
fold P0 signal over the beads-ribosome background (His-G5(1–739) W14A): 13.8 fold
Substance: 80S ribosomes (from UniProt P05388 1-317) (complex)
